Patent US20220403048A1 (CANCER RESEARCH TECHNOLOGY, published 2022)
Where two headings read alike, the source gives them in different places.

T1: recombinant human trimeric ARG2 enzyme (construct not given) (human, UniProt P78540 23-354)
T1 sequence (looked up): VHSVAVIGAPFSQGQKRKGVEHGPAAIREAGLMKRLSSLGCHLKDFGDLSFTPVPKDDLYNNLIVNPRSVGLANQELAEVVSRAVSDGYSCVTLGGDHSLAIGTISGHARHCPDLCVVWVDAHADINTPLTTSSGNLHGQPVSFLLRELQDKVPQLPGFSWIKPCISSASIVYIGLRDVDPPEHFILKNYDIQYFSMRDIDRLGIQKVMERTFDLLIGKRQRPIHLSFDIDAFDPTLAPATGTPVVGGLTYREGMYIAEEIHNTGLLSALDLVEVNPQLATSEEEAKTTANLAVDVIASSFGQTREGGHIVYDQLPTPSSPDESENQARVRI

T2: THP-1 lysate derived human trimeric ARG2 (human, UniProt P78540 23-354, limits assumed)
T2 sequence (looked up): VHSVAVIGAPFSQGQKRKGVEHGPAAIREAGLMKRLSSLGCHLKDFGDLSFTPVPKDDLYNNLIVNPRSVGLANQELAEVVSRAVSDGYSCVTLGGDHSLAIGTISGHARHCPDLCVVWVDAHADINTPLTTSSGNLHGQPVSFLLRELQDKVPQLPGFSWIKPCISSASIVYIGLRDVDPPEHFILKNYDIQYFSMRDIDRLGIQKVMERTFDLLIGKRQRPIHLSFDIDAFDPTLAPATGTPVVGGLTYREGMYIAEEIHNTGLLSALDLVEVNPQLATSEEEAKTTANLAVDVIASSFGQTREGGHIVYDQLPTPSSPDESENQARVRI

T3: biotinylated recombinant human trimeric ARG2 enzyme (Avi-huARG2-His10) (human, UniProt P78540 23-354, biotinylated)
T3 construct: also called avi-Arg2-His10; bio-ARG2
T3 chain: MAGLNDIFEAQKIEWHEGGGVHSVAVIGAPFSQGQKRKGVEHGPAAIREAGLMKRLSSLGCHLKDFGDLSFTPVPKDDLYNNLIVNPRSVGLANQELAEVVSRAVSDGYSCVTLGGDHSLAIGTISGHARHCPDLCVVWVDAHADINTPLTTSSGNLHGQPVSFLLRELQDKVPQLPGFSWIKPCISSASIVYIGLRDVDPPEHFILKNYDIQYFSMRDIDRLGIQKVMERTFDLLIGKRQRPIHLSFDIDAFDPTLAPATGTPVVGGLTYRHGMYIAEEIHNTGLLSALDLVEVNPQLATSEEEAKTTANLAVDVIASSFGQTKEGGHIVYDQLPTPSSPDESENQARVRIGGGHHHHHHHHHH


Columns and labels:
[1] = target: T1, recombinant human trimeric ARG2 enzyme …; test: cell-based or functional assay
[2] = target: T2, THP-1 lysate derived human trimeric ARG2; test: cell-based or functional assay
[3] = target: T2, THP-1 lysate derived human trimeric ARG2; test: cell-based or functional assay; remark: listed apart in the source
[4] = target: T1, recombinant human trimeric ARG2 enzyme …; test: cell-based or functional assay; remark: listed apart in the source
[5] = target: T1, recombinant human trimeric ARG2 enzyme …; test: cell-based or functional assay; remark: listed apart in the source
[6] = target: T3, biotinylated recombinant human trimeric …; test: HTRF epitope competition, scFv titrated, competitor C0020187 IgG, on biotinylated human trimeric ARG2

Row | Binder | EC50, In Presence of rhARG2 (T cell proliferation) [1] | Maximum % Proliferation, In Presence of rhARG2 [1] | IC50 (M) THP-1 ARG2 (healthy human plasma) [2] | IC50 (M) THP-1 ARG2 (no plasma) [2] | THP-1 lysate ARG2 EIA IC50 [3] | other results
1 | C0021133 scFv (scFv, V domains shown, scFv) VH: EVQLLESGGGLVQPGGSLRLSCAASGFTFRYDHHVWVRQAPGKGLEWVSAISGSGGSTYYADSVKGRFTISRDNSKNTLYLQMNSLRAEDTAVYYCARLRADLGLYMDLWGRGTLVTVSS VL: QSVLTQPPSVSAAPGQKVTVSCSGSSSNIGNHYVSWYQQLPGTAPKLLIYDTTVLSSGIPDRFSGSKSGTSATLGITGLQTGDEADYYCGTWDELTSNLVFGGGTKLTVL | – | – | – | – | – | Trimeric human ARG2 EIA IC50 [5]: 281 nM; IC50 [6]: 43.3 nM
2 | C0021022 recombinant human IgG1 (antibody, V domains shown) VH: EVQLLESGGGLVQPGGSLRLSCAASGFTFSSYAMSWVRQAPGKGPEWVSAISGFSPYYADSVKGRFTISRDNSKNTLYLQMNSLRAEDTAVYYCARLRADLGLYMDLWGRGTLVTVSS VL: QSVLTQPPSVSAAPGQKVTISCSGSSSNIGNHYVSWYQQLPGTAPKLLIYDNSERPSGIPDRFSGSKSGTSATLGITGLQTGDEADYYCGTWDSSLSALVFGGGTKLTVL | 132 nM | 77% | 2.71e-09 M | 5.81e-09 M | – | –
3 | C0021133 recombinant human IgG1 (antibody, V domains shown) VH: EVQLLESGGGLVQPGGSLRLSCAASGFTFRYDHHVWVRQAPGKGLEWVSAISGSGGSTYYADSVKGRFTISRDNSKNTLYLQMNSLRAEDTAVYYCARLRADLGLYMDLWGRGTLVTVSS VL: QSVLTQPPSVSAAPGQKVTVSCSGSSSNIGNHYVSWYQQLPGTAPKLLIYDTTVLSSGIPDRFSGSKSGTSATLGITGLQTGDEADYYCGTWDELTSNLVFGGGTKLTVL | 101 nM | 73% | 3.7e-09 M | 6.68e-09 M | 7.38 nM | –
4 | C0021141 scFv (scFv, V domains shown, scFv) VH: EVQLLESGGGLVQPGGSLRLSCAASGFTFYPDPQGWVRQAPGKGLEWVSAYGYGIGSTYYADSVKGRFTISRDNSKNTLYLQMNSLRAEDTAVYYCARLRADLGLYMDLWGRGTLVTVSS VL: QSVLTQPPSVSAAPGQEVTISCSGSSSNIDNHYVSWYQQLPGTAPKLLIYDNSERPSGIPDRFSGSKSGTSATLGITGLQTGDEADYYCGTWDSSLSALVFGGGTKLTVL | – | – | – | – | – | Trimeric human ARG2 EIA IC50 [5]: 109 nM; IC50 [6]: 51.1 nM
5 | C0021128 scFv (scFv, V domains shown, scFv) VH: EVQLLESGGGLVQPGGSLRLSCAASGFTFQYEVAAWVRQAPGKGLEWVSAISGPIPKGYYADSVKGRFTISRDNSKNTLYLQMNSLRAEDTAVYYCARLRADLGLYMDLWGRGTLVTVSS VL: QSVLTQPPSVSAAPGQKVTISCSGSSSNIGNHYVSWYQQLPGTAPKLLIYDNAIESSGIPDRFSGSKSGTSATLGITGLQTGDGADYYCGTWDSNLSALVFGGGTKLTVL | – | – | – | – | – | Trimeric human ARG2 EIA IC50 [5]: 169 nM; IC50 [6]: 44.5 nM
6 | C0021065 recombinant human IgG1 (antibody, V domains shown) VH: EVQLLESGGGLVQPGGSLRLSCAASGFTFSSYAMSWVRQAPGKGPEWVSAISGFSPYYADSVKGRFTISRDNSRNTLYLQMNSLRAEDTAVYYCARLRADLGLYMDLWGRGTLVTVSS VL: QSVLTQPPSVSAAPGQKVTISCSGSSSNIGNHYVSWYQQLPGTAPKLLIYDTDHMASGIPDRFSGSKSGTSATLGITGLQTGDEADYYCGTWDSSLSALVFGGGTKLTVL | 136 nM | 87% | 2.98e-09 M | 5.99e-09 M | – | –
7 | C0021092 recombinant human IgG1 (antibody, V domains shown) VH: EVQLLESGGGLVQPGGSLRLSCAASGFTFSRYAMSWVRQAPGKGLEWVSAHTHSPGSTYYADSVKGRFTISRDNSKNTLYLQMNSLRAEDTAVYYCARLRADLGLYMDLWGRGTLVTVSS VL: QSVLTQPPSVSAAPGQKVTISCSGSSSNIGNHYVSWYQQLPGTAPKLLIYNSVARPSGIPDRFSGSKSGTSATLGITGLQTGDEADYYCGTWDSSLSALVFGGGTKLTVL | 116 nM | 77% | 2.82e-09 M | 6.56e-09 M | – | –
8 | C0021180 recombinant human IgG1 (antibody, V domains shown) VH: EVQLLESGGGLVQPGGSLRLSCAASGFTFRYEVAAWVRQAPGKGLEWVSAISGPIPKGYYADSVKGRFTISRDNSKNTLYLQMNSLRAEDTAVYYCARLRADLGLYMDLWGRGTLVTVSS VL: QSVLTQPPTVSAAPGRKVTISCSGSSSNIGDHHVSWYQQLPGAAPKLLIYDTDHMASGIPDRFSGSRSGTSATLGITGLQTGDEADYYCGTWDSSLSALVFGGGTKLTVL | – | – | – | – | 4.59 nM | EC50, In Presence of rhARG2 (T cell proliferation) [4]: 137 nM; Maximum % Proliferation, In Presence of rhARG2 [4]: 91%

Continued, in another order:

Row | EC50, In Presence of rhARG2 (T cell proliferation) [1] | Maximum % Proliferation, In Presence of rhARG2 [1] | IC50 (M) THP-1 ARG2 (healthy human plasma) [2] | IC50 (M) THP-1 ARG2 (no plasma) [2] | THP-1 lysate ARG2 EIA IC50 [3] | Binder | other results
9 | 113 nM | 83% | 2.9e-09 M | 6.79e-09 M | 5.81 nM | C0021061 recombinant human IgG1 (antibody, V domains shown) VH: EVQLLESGGGLVQPGGSLRLSCAASGFTFSSYAMSWVRQAPGKGLEWVSAKPTDAGSTYYADSVKGRFTISRDNSKNTLYLQMNSLRAEDTAVYYCARLRADLGLYMDLWGRGTLVTVSS VL: QSVLTQPPSVSAAPGQKVTISCSGSSSNIGNHYVSWYQQLPGTAPKLLIYNTVYPKSGIPDRFSGSKSGTSATLGITGLQTGDEADYYCGTWDSSLSALVFGGGTKLTVL | EC50, In Presence of rhARG2 (T cell proliferation) [4]: 149 nM; Maximum % Proliferation, In Presence of rhARG2 [4]: 110%
10 | 111 nM | 67% | 2.02e-09 M | 5.75e-09 M | – | C0021139 recombinant human IgG1 (antibody, V domains shown) VH: EVQLLESGGGLVQPGGSLRLSCAASGFTFQYDYQVWVRQAPGKGLEWVSAISGSGGSTYYADSVKGRFTISRDNSKNTLYLQMNSLRAEDTAVYYCARLRADLGLYMDLWGRGTLVTVSS VL: QSVLTQPPSVSAAPGQKVTISCSGSSSNIGNHYVSWYQQLPGTAPKLLIYDNSERTSGIPDRFSGSKSGTSATLGITGLQTGDEADYYCGTWDELTSNLVFGGGTKLTVL | –
11 | – | – | – | – | 10.9 nM | C0021144 recombinant human IgG1 (antibody, V domains shown) VH: EVQLLESGGGLVQPGGSLRLSCAASGFTFRYDYHVWVRQAPGKGLEWVSAISGSGGSTYYADSVKGRFTISRDNSKNTLYLQMNSLRAEDTAVYYCARLRADLGLYMDLWGRGTLVTVSS VL: QSVLTQPPSVSAAPGQKVTVSCSGSSSNIGNHHVSWYQQLPGTAPKLLIYDTTVLSSGVPDRFSGSKSGTSATLGITGLQTGDEADYYCGTWDELTSNLVFGGGTKLTVL | –
12 | – | – | – | – | 9.64 nM | C0021155 recombinant human IgG1 (antibody, V domains shown) VH: EVQLLESGGGLVQPGGSLRLSCEASGFTFRYDYHVWVRQAPGKGLEWVSAISGSGGSTYYADPVKGRFTISRDNSKNTLYLQMNSLRAEDTAVYYCARLRADLGLYMDLWGRGTLVTVSS VL: RSVLTQPPSVSAAPGQKVTISCSGSSSNIGNHYVSWYQQLPGTAPKLLIYDTTVLSSGIPDRFSGSKSGTSATLGITGLQTGDEADYYCGTWDELTSNLVFGGGTRLTVL | –
13 | – | – | – | – | 5.17 nM | C0021177 recombinant human IgG1 (antibody, V domains shown) VH: EVQLLESGGGLVQPGGSLRLSCAASGFTFRYEVAAWVRQAPGKGLEWVSAISGPAPKGYYADSVKGRFTISRDNSKNTLYLQMNSLRAEDTAVYYCARLRADLGLYMDLWGRGTLVTVSS VL: QSELTQPPTASAAPGQKVTISCSGSSSNIGNHYVSWYQQLPGTAPKLLIYDTTVLSSGIPDRFSGSKSGTSATLGITGLQTGDEADYYCGTWDELTSNLVFGGGTKLTVL | EC50, In Presence of rhARG2 (T cell proliferation) [4]: 86 nM; Maximum % Proliferation, In Presence of rhARG2 [4]: 84%
14 | – | – | – | – | 6.93 nM | C0021181 recombinant human IgG1 (antibody, V domains shown) VH: EVQLLESGGGLVRPGGSLRLSCAASEFTFRYDYHVWVRQAPGKGLEWVSAISGSGGSTYYADSVKSRFTISRDNSKNTLYLQMNSLRAEDTAVYYCARLRADLGLYMDLWGRGTLVTVSS VL: QSVLTQPPSVSAAPGQKVAVSCSGSSSNIGSHYVSWYQQLPGTAPKLLIYDNSERTSGIPDRFSGSKSGTSATLGITGLQTGDEADYYCGTWDELTSNLVFGGGTRLTVL | –
